Tests used:
[1] = biological target: GST-Nef (HIV-1 NL4-3 Nef containing a T71R change) (HIV-1 NL4-3) [GST: P08515]
[2] = biological target: GST-NefR90 (HIV-1 Nef carrying an F90R mutation) (HIV-1) [GST: P08515]
[3] = biological target: GST-Nef (HIV-1 NL4-3 Nef containing a T71R change) (HIV-1 NL4-3) [GST: P08515]; assay: competition plate assay: unlabeled GST-SH3 vs biotinylated Hck-SH3 probe (66 nM) on immobilized GST-Nef
[4] = biological target: GST-Nef (HIV-1 NL4-3 Nef containing a T71R change) (HIV-1 NL4-3) [GST: P08515]; remark: listed apart in the source
[5] = biological target: GST-NefR90 (HIV-1 Nef carrying an F90R mutation) (HIV-1) [GST: P08515]; remark: listed apart in the source
[6] = biological target: GST-NefR90 (HIV-1 Nef carrying an F90R mutation) (HIV-1) [GST: P08515]; assay: estimated from competition by Hck-SH3 and the earlier KD 1.99 µM of Hck-SH3/NefR90
[7] = biological target: GST-Nef (HIV-1 NL4-3 Nef containing a T71R change) (HIV-1 NL4-3) [GST: P08515]; assay: calculated from competition with Hck-SH3 probe on immobilized Nef, based on KD 250 nM of Hck-SH3/Nef

Row | Substance | inhibition at an equimolar probe:competitor ratio [1] [%] | inhibition at an equimolar probe:competitor ratio [2] [%] | ratio of competitor per probe giving 50% inhibition (1:x competitor:probe) [3] | IC50 [4] [nM] | fold excess over the probe needed for 50% inhibition [4] [fold] | IC50 [5] [nM] | fold molar excess over the probe needed for 50% inhibition [5] [fold] | Kd [6] [nM] | Kd [7] [nM]
1 | GST-RRT.D1 (Hck-derived RRT-SH3 domain, RT-loop SSFYSS) (from UniProt P08631 62-118) (designed binder) | 45 | 17 | 22 | – | – | – | – | – | –
2 | GST-RRT.C3 (Hck-derived RRT-SH3 domain, RT-loop YSDFPW) (from UniProt P08631 62-118) (designed binder) | 42 | 20 | 26 | – | – | – | – | – | –
3 | GST-RRT.m3 (Hck-derived RRT-SH3 domain selected on NefR90, RT-loop EAWSPL) (from UniProt P08631 62-118) (designed binder) | 22 | 62 | 17 | – | – | – | – | – | –
4 | GST-RRT.A4 (Hck-derived RRT-SH3 domain, RT-loop YSWSDM) (from UniProt P08631 62-118) (designed binder) | 34 | 44 | 10 | – | – | – | – | – | –
5 | GST-RRT.m4 (Hck-derived RRT-SH3 domain selected on NefR90, RT-loop ESYSEW) (from UniProt P08631 62-118) (designed binder) | < 5 | 46 | – | – | – | – | – | – | –
6 | GST-RRT.C4 (Hck-derived RRT-SH3 domain, RT-loop DSWFPW) (from UniProt P08631 62-118) (designed binder) | 10 | 19 | 14 | – | – | – | – | – | –
7 | GST-Hck-SH3 (native Hck SH3 domain, GST fusion protein) (from UniProt P08631 78-138) | < 5 | < 5 | 1 | > 850 | > 100 | > 1100 | > 16 | – | –
8 | GST-RRT.B4 (Hck-derived RRT-SH3 domain, RT-loop FSPFDW) (from UniProt P08631 62-118) (designed binder) | 41 | 37 | 21 | – | – | – | – | – | –
9 | GST-RRT.B2 (Hck-derived RRT-SH3 domain, RT-loop DSPFSF) (from UniProt P08631 62-118) (designed binder) | 22 | 26 | 22 | – | – | – | – | – | –
10 | GST-RRT.C2 (Hck-derived RRT-SH3 domain, RT-loop YSFFPW) (from UniProt P08631 62-118) (designed binder) | 20 | 13 | 16 | – | – | – | – | – | –
11 | GST-RRT.m2 (Hck-derived RRT-SH3 domain selected on NefR90, RT-loop NAFLPS) (from UniProt P08631 62-118) (designed binder) | < 5 | 73 | 2 | – | – | – | – | – | –
12 | GST-RRT.A1 (Hck-derived RRT-SH3 domain, RT-loop VSWSPD) (from UniProt P08631 62-118) (designed binder) | 55 | 52 | 35 | – | – | – | – | < 100 | 7
13 | GST-RRT.m1 (Hck-derived RRT-SH3 domain selected on NefR90, RT-loop QGFLDQ) (from UniProt P08631 62-118) (designed binder) | < 5 | 73 | 0.8 | – | – | – | – | – | –
14 | GST-RRT.C1 (Hck-derived RRT-SH3 domain, RT-loop TSPFPW) (from UniProt P08631 62-118) (designed binder) | 39 | < 5 | 31 | – | – | – | – | – | 7
15 | GST-RRT.B1 (Hck-derived RRT-SH3 domain, RT-loop WSPFPS) (from UniProt P08631 62-118) (designed binder) | 41 | 9 | 26 | – | – | – | – | – | –
16 | GST-RRT.B6 (Hck-derived RRT-SH3 domain, RT-loop YSPFSW) (from UniProt P08631 62-118) (designed binder) | 51 | 14 | 37 | – | – | – | – | – | 7
17 | GST-RRT.A2 (Hck-derived RRT-SH3 domain, RT-loop FSWSDT) (from UniProt P08631 62-118) (designed binder) | 20 | 53 | 19 | – | – | – | – | – | –
